Experimental data taken from article doi:10.1101/2025.06.04.657969, “Complex rheology of condensin in entangled DNA”.

Legend:
[1] = target: T1, condensin hinge (Smc2/Smc4 hinge heterodimer) (Saccharomyces cerevisiae, UniProt P38989;Q12267 396-792;555-951); assay: fluorescence polarization; 20 nM DNA; 5 mM MgCl2; EMSA: 50 mM Tris-HCl pH 7.5, 50 mM KCl, 125 mM NaCl, 5 mM MgCl2, 5% glycerol, 1 mM DTT, 10 min on ice, gel at 4 C; FP: 25 mM Tris-HCl pH 7.5, 100 mM NaCl, 5 mM; conditions: protein: recombinant; tags: N-terminal His6-TEV on Smc2; Smc4 untagged; copies: 1;1; label: 5' 6-FAM on strand 1; blunt
T1 sequence 1: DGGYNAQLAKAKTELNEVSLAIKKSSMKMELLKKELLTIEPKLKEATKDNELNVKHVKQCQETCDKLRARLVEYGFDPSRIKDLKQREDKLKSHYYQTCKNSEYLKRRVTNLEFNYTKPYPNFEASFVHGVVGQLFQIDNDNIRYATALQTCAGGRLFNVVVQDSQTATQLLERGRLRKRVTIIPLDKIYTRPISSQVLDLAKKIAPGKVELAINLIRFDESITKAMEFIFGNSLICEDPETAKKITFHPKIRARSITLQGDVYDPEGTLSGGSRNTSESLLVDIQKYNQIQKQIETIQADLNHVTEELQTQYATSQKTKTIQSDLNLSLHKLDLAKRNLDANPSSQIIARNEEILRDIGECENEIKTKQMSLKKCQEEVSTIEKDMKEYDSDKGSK
T1 sequence 2: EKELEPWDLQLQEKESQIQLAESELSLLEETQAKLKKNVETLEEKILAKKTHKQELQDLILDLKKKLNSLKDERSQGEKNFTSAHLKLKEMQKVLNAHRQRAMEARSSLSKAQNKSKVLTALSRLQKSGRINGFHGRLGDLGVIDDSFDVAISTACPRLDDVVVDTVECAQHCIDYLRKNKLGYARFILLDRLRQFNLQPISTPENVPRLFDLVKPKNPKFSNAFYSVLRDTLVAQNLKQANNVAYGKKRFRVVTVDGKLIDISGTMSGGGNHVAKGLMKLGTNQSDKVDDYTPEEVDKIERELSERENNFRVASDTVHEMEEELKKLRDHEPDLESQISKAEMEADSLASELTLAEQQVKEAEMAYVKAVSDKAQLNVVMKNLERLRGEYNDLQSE

[2] = target: T1, condensin hinge (Smc2/Smc4 hinge …); assay: EMSA; 10 nM DNA; 5 mM MgCl2; Fig. 2c legend gives 0.2-0.3 uM and a 25 bp oligo; EMSA: 50 mM Tris-HCl pH 7.5, 50 mM KCl, 125 mM NaCl, 5 mM MgCl2, 5% glycerol, 1 mM DTT, 10 min on ice, gel at 4 C; FP: 25 mM Tris-HCl pH 7.5, 100 mM NaCl, 5 mM; conditions: protein: recombinant; tags: N-terminal His6-TEV on Smc2; Smc4 untagged; copies: 1;1; label: 5' 6-FAM on strand 1; blunt

B1: 6-FAM 50-bp dsDNA (dsDNA)
DNA 1: GGATACGTAACAACGCTTATGCATCGCCGCCGCTACATCCCTGAGCTGAC
DNA 2: GTCAGCTCAGGGATGTAGCGGCGGCGATGCATAAGCGTTGTTACGTATCC
B1 was tested, and the Kd [1] was about 700 nM and the Kd [2] was about 141 nM.
